From patent US20030096275

Molecular target: T1, ArsR (Escherichia coli) (UniProt P15905)
T1 sequence: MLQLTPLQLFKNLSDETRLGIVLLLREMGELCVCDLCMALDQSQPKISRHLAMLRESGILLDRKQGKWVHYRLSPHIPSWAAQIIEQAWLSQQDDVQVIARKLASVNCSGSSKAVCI
Experiment: SPR
Conditions: ±10 nM, HBS-EP pH 7.4, 25 C

[1] = one value stated for all sequences although affinities said to differ, binding inhibited about 55% by 100 uM phenylarsine oxide …
[2] = one value stated for all sequences

| Sequence | Kd [1] [nM] | Kd [2] [nM] |
| --- | --- | --- |
| CTGCACTTACACATTCGTTAAGTCATATATGTTTTTGACTTA / TAAGTCAAAAACATATATGACTTAACGAATGTGTAAGTGC [CHROML1] | 500 | – |
| TTAAGTCATATATGTTTTTGACTTA (double strand) [CHROMS1] | – | 500 |
| TTAATCATATGCGTTTTTGGTTA / TAACCAAAAACGCATATGATT [PLASS1] | – | 500 |
| TTAATCATATGCGTTTTTGGTTATGTGTTG / CAACACATAACCAAAAACGCATATGATT [PLASL1] | 500 | – |
